This test concerns the target Htz1(T46C)-2xFLAG (yeast H2A.Z with a cysteine probe) (yeast). The experiment in a line: cross-linking; VivosX: disulfide cross-linking in living yeast cells with 180 uM 4-DPS for 20 min at 30 C; TCA fixation; non-reducing SDS-PAGE and anti-FLAG immunoblot, bands normalised to H4; WT cells (swc2 and swr1 deletion cells also tested, with fewer ZZ and AZ adducts).

This note sets out measurements from PMC12068740.

Consider “2xV5-Hta1(N39C) (yeast H2A with a cysteine probe) (natural protein)”, for which the percent of bulk H2A.Z in the H2A-to-H2A.Z cross-linked adduct (WT cells) amounted to 57%.

Substance “Htz1(T46C)-2xFLAG (yeast H2A.Z with a cysteine probe) (natural protein)” displayed a percent of bulk H2A.Z in the H2A.Z-to-H2A.Z cross-linked adduct (WT cells) of 12%.
